# Test results from paper PMC3817697, “Building a pseudo-atomic model of the anaphase-promoting complex” (Acta Crystallographica Section D: Biological Crystallography, 2013).
# B1: Cdc23 (Cut23) subunit of recombinant S. pombe APC/C (natural protein, UniProt O94556 1-565, looked up)
# chain: MTVSLNTMMGVDGLEDQEQLREIRNCLLKCISECSERGLVYAVRWAAEMLNGMNPIEMEHIPFSSTPTGEFDLDPDMANEKLLEVEEKNIYLLAKSYFDCKEFERAAYTLQNCKSSKSIFLRLYSKYLAGEKKSEEENETLLNTNLTLSSTNREFYYISEVLESLHYQGNKDPYLLYLSGVVYRKRKQDSKAIDFLKSCVLKAPFFWSAWLELSLSIDSLETLTTVVSQLPSTHIMTKIFYVYASHELHQVNSSAYEKLAEAEIIFPNSRYLKTQRALLTYDSRDFDEAESLFENILTNDPYRLDDMDTYSNVLFVLENKSKLGFLAQVASSIDKFRPETCSIIGNYYSLLSEHEKAVTYFKRALQLNRNYLSAWTLMGHEYVELKNTHAAIESYRLAVDVNRKDYRAWYGLGQTYEVLDMHFYALYYFQRATALRPYDQRMWQALGNCYEKIDRPQEAIKSYKRALLGSQTNSSILVRLGNLYEELQDLNSAASMYKQCIKTEETEISPETIKARIWLARWELGKKNYREAELYLSEVLNGDLELEEAKALLRELRSRMEHSYD
# notes: Cdc23 (S. pombe name Cut23; human Apc8), TPR subunit of the S. pombe anaphase-promoting complex; Subunit within the recombinant S. pombe APC/C used for cryo-EM; also called Apc8; source: recombinant S. pombe APC/C
# B2: Cdc27 (Nuc2) subunit of recombinant S. pombe APC/C (natural protein, UniProt P10505 1-665, looked up)
# chain: MTDRLKCLIWYCIDNQNYDNSIFYSERLHAIEDSNESLYLLAYSHFLNLDYNIVYDLLDRVISHVPCTYLFARTSLILGRYKQGISAVEACRSNWRSIQPNINDSISSRGHPDASCMLDVLGTMYKKAGFLKKATDCFVEAVSINPYNFSAFQNLTAIGVPLDANNVFVIPPYLTAMKGFEKSQTNATASVPEPSFLKKSKESSSSSNKFSVSESIANSYSNSSISAFTKWFDRVDASELPGSEKERHQSLKLQSQSQTSKNLLAFNDAQKADSNNRDTSLKSHFVEPRTQALRPGARLTYKLREARSSKRGESTPQSFREEDNNLMELLKLFGKGVYLLAQYKLREALNCFQSLPIEQQNTPFVLAKLGITYFELVDYEKSEEVFQKLRDLSPSRVKDMEVFSTALWHLQKSVPLSYLAHETLETNPYSPESWCILANCFSLQREHSQALKCINRAIQLDPTFEYAYTLQGHEHSANEEYEKSKTSFRKAIRVNVRHYNAWYGLGMVYLKTGRNDQADFHFQRAAEINPNNSVLITCIGMIYERCKDYKKALDFYDRACKLDEKSSLARFKKAKVLILLHDHDKALVELEQLKAIAPDEANVHFLLGKIFKQMRKKNLALKHFTIAWNLDGKATHIIKESIENLDIPEENLLTETGEIYRNLET
# notes: Cdc27 (S. pombe name Nuc2; human Apc3), TPR subunit of the S. pombe anaphase-promoting complex; Subunit within the recombinant S. pombe APC/C used for cryo-EM; also called Apc3; source: recombinant S. pombe APC/C
# B3: Cdc16 (Cut9) subunit of recombinant S. pombe APC/C (natural protein, UniProt P41889 1-671, looked up)
# chain: MVVKRTQTDSRMQSTPGNHNHPDAHANAAYMTPPSMGALNANNSNSQLSTLTISPMTYLANNTSTDGSFLKERNAQNTDSLSREDYLRLWRHDALMQQQYKCAAFVGEKVLDITGNPNDAFWLAQVYCCTGDYARAKCLLTKEDLYNRSSACRYLAAFCLVKLYDWQGALNLLGETNPFRKDEKNANKLLMQDGGIKLEASMCYLRGQVYTNLSNFDRAKECYKEALMVDAKCYEAFDQLVSNHLLTADEEWDLVLKLNYSTYSKEDAAFLRSLYMLKLNKTSHEDELRRAEDYLSSINGLEKSSDLLLCKADTLFVRSRFIDVLAITTKILEIDPYNLDVYPLHLASLHESGEKNKLYLISNDLVDRHPEKAVTWLAVGIYYLCVNKISEARRYFSKSSTMDPQFGPAWIGFAHSFAIEGEHDQAISAYTTAARLFQGTHLPYLFLGMQHMQLGNILLANEYLQSSYALFQYDPLLLNELGVVAFNKSDMQTAINHFQNALLLVKKTQSNEKPWAATWANLGHAYRKLKMYDAAIDALNQGLLLSTNDANVHTAIALVYLHKKIPGLAITHLHESLAISPNEIMASDLLKRALEENSLTSGFLNSKYVFEDEVSEYMQQSNLNTSDKSMSMEDQSGKVTESVNDRTQVLYADSRSEMMMDDIEGNVSEQR
# notes: Cdc16 (S. pombe name Cut9; human Apc6), TPR subunit of the S. pombe anaphase-promoting complex; Subunit within the recombinant S. pombe APC/C used for cryo-EM; the insect-cell MultiBac system is described only for the budding-yeast APC/C; also called Apc6; source: recombinant S. pombe APC/C
# B4: Cdc26 (Hcn1) subunit of recombinant S. pombe APC/C (natural protein, UniProt O13916 1-80, looked up)
# chain: MLRRNPTAIQITAEDVLAYDEEKLRQTLDSESTTEEALQKNEESTRLSPEKKKIIRERRIGITQIFDSSMHPSQGGAAQS
# notes: Cdc26 (S. pombe name Hcn1), TPR accessory subunit of the S. pombe anaphase-promoting complex; Subunit within the recombinant S. pombe APC/C used for cryo-EM; source: recombinant S. pombe APC/C
# Biological target: the molecule itself
# Test: cryo-EM structure; recombinant S. pombe APC/C, single-particle cryo-EM, about 12 Å, still being refined; atomic models of subunits docked into the density and refined as rigid bodies with URO
# Settings: not given
row,Binder,binding result
1,B1,binds
2,B2,binds
3,B3,binds

# Biological target: B3
# Test: as above
# Settings: both partners purified
row,binding result,Binder
1,binds,B1
2,binds,B2
3,binds,B4
